Partial inhibition of the GABA current by Zn2+ (10 µM), Xenopus oocytes, two-electrode voltage clamp data for two substances are collected here from patent US20040038236A1.

The target in assay [1] is GABAA receptor alpha-1 subunit (GABRA1) (human) (UniProt P14867). Description: cell-based or functional assay.
The target in assay [2] is GABAA receptor beta-2 subunit (GABRB2) (human) (UniProt P47870). The assay is described as follows: cell-based or functional assay.
Chain of GABAA receptor beta-2 subunit (GABRB2) (human) (P47870 26-512): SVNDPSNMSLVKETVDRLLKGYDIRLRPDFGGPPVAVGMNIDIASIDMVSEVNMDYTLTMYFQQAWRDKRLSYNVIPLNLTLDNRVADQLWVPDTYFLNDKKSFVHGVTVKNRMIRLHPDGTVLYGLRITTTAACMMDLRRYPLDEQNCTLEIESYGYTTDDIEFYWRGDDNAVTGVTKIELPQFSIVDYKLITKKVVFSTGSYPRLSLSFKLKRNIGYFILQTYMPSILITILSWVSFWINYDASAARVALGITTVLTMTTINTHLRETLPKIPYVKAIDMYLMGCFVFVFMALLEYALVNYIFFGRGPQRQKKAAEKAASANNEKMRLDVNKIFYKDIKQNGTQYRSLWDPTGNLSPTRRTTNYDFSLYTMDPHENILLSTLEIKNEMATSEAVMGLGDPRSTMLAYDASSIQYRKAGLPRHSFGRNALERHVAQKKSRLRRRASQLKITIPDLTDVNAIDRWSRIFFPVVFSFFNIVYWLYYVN

Chain of GABAA receptor alpha-1 subunit (GABRA1) (human) (P14867 28-456): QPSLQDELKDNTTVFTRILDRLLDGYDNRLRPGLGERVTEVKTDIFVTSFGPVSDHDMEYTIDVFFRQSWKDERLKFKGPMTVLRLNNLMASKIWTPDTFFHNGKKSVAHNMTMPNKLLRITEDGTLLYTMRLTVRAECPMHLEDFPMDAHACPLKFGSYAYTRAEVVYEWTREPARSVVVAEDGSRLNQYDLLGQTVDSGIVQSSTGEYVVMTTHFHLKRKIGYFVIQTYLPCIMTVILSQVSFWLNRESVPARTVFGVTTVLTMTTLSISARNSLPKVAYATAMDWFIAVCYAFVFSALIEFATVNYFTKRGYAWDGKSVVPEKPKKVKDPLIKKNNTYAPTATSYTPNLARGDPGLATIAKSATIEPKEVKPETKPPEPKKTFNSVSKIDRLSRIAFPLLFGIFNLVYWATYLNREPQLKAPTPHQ

With “GABAA receptor gamma-2 subunit R43Q mutant, GABRG2(R43Q) (from UniProt P18507 40-475)”, the partial inhibition of the GABA current by Zn2+ (10 µM), Xenopus oocytes, two-electrode voltage clamp in assay [1] and in assay [2] was 40% each time.
For the substance “wild-type GABAA receptor gamma-2 subunit (GABRG2) (from UniProt P18507 40-475)”, the partial inhibition of the GABA current by Zn2+ (10 µM), Xenopus oocytes, two-electrode voltage clamp in assay [1] and in assay [2] was 37% in each case.
